The values that follow come from patent publication US20100075898A1 (BEN GURION UNIVERSITY OF THE NEGEV RESEARCH AND DEVELOPMENT …, published 2010).

Data set [1] addresses T1, purified rat brain HK-I (Hexokinase 1) (rat, UniProt P05708 1-918).
T1 construct: Purified from rat brain; immobilised on the SPR chip or added (28 mU/ml) to bilayer-reconstituted VDAC1; also called HK-1
T1 sequence (looked up): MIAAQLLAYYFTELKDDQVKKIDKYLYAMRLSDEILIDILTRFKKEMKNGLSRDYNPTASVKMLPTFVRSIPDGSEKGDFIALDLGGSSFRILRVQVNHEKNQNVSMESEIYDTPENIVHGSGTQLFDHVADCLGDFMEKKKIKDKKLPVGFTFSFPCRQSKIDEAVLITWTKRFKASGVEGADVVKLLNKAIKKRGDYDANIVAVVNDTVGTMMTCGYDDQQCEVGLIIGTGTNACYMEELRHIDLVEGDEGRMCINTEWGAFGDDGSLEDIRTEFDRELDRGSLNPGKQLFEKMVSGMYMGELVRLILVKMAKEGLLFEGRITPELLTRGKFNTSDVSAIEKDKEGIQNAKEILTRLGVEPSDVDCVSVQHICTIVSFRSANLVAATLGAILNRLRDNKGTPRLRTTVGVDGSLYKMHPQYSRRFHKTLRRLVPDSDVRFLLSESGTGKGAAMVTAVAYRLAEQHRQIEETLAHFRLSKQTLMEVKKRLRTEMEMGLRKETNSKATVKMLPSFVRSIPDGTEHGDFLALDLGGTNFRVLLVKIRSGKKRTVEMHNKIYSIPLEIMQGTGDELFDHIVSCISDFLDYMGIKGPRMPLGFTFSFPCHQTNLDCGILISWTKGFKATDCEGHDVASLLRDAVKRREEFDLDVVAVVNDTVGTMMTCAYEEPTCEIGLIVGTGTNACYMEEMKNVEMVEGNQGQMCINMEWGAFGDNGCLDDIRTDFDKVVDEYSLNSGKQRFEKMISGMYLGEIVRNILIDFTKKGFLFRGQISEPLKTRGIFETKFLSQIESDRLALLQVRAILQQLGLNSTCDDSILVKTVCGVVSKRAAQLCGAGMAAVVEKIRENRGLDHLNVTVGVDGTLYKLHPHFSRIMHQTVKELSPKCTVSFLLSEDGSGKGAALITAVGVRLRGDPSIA
The data set is described as follows: channel currents of planar-lipid-bilayer-reconstituted mVDAC1 before and after addition of HK-I (28 mU/ml). Here is the method:
(§1) The dashed lines indicate the zero and the maximal current levels.
(§2) Briefly, PLB were prepared from soybean asolectin dissolved in n-decane (50 mg/ml) in a chamber containing 10 mM Hepes/KOH, pH 7.4 and 0.5 or 1M NaCl (cis/trans). Only PLBs with a resistance greater than 100 GΩ were used. Purified VDAC (about 1 ng) was added to the chamber defined as the cis side. After insertion of one or more channels into the PLB, excess protein was removed by perfusion of the cis chamber with 20 volumes of a same solution. Currents were recorded under voltage-clamp mode using a Bilayer Clamp amplifier (Warner Instruments, Hamden, Conn.). Currents were measured with respect to the trans side of the membrane (ground). The currents were low-pass filtered at 1 kHz, using a Bessal filter (Frequency Devices, Haverhill, Mass.) and digitized on-line using a Digidata 1200 interface board and pCLAMP 6 software (Axon Instruments). Sigma Plot 2000 scientific software was used for data analyses. Experiments were performed at 23-25° C. […] N-terminal VDAC1 peptides were diluted in running buffer (150 mM NaCl, 0.005% Tween-20, 4% (V/V) DMSO, 10 mM PBS, pH, 7.4) and injected onto the sensor chip at varying concentrations at a flow rate of 40 μl/min at 25° C.

Data set [2] deals with T1, purified rat brain HK-I (Hexokinase 1). Kind of data set: channel currents of planar-lipid-bilayer-reconstituted VDAC1 before and after addition of HK-I. As to the method:
as §1, §2

In data set [3] the target is T2, native mVDAC1 (mouse VDAC1).
T2 chain: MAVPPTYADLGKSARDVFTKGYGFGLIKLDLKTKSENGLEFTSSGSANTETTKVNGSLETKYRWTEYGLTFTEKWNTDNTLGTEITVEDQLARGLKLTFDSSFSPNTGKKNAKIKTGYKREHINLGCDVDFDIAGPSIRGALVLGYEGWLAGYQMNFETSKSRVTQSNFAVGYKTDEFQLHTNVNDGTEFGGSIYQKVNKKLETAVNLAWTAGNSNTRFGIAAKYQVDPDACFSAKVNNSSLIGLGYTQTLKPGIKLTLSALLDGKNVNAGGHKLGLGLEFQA

In data set [4] the target is T3, Δ(1-26)mVDAC1 (N-terminal truncated mouse VDAC1 lacking amino acids 1-26).
T3 chain: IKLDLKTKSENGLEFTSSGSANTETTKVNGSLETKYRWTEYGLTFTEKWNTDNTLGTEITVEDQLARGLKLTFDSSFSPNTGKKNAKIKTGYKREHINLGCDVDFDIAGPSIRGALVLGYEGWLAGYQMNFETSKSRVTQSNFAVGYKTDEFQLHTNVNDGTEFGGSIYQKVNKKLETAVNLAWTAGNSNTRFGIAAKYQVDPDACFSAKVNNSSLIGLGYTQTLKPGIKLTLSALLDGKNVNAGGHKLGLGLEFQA

B1: native mVDAC1 (mouse VDAC1) (other)
chain: MAVPPTYADLGKSARDVFTKGYGFGLIKLDLKTKSENGLEFTSSGSANTETTKVNGSLETKYRWTEYGLTFTEKWNTDNTLGTEITVEDQLARGLKLTFDSSFSPNTGKKNAKIKTGYKREHINLGCDVDFDIAGPSIRGALVLGYEGWLAGYQMNFETSKSRVTQSNFAVGYKTDEFQLHTNVNDGTEFGGSIYQKVNKKLETAVNLAWTAGNSNTRFGIAAKYQVDPDACFSAKVNNSSLIGLGYTQTLKPGIKLTLSALLDGKNVNAGGHKLGLGLEFQA
notes: Native full-length mouse VDAC1 expressed in porin-less yeast, purified and reconstituted into planar lipid bilayers; also called native VDAC1; bilayer-reconstituted native VDAC1
On to B1, for which the binding result in data set [1] is “binds”.

B2: Δ(1-26)mVDAC1 (N-terminal truncated mouse VDAC1 lacking amino acids 1-26) (other)
chain: IKLDLKTKSENGLEFTSSGSANTETTKVNGSLETKYRWTEYGLTFTEKWNTDNTLGTEITVEDQLARGLKLTFDSSFSPNTGKKNAKIKTGYKREHINLGCDVDFDIAGPSIRGALVLGYEGWLAGYQMNFETSKSRVTQSNFAVGYKTDEFQLHTNVNDGTEFGGSIYQKVNKKLETAVNLAWTAGNSNTRFGIAAKYQVDPDACFSAKVNNSSLIGLGYTQTLKPGIKLTLSALLDGKNVNAGGHKLGLGLEFQA
notes: Expressed in porin-less yeast, purified and reconstituted into planar lipid bilayers; also called N-terminus truncated protein; truncated version of VDAC1
On to B2, for which the binding result in data set [2] is recorded as “no binding (tested: 28 mU/ml)”.

B3: purified rat brain HK-I (Hexokinase 1) (protein)
chain: MIAAQLLAYYFTELKDDQVKKIDKYLYAMRLSDEILIDILTRFKKEMKNGLSRDYNPTASVKMLPTFVRSIPDGSEKGDFIALDLGGSSFRILRVQVNHEKNQNVSMESEIYDTPENIVHGSGTQLFDHVADCLGDFMEKKKIKDKKLPVGFTFSFPCRQSKIDEAVLITWTKRFKASGVEGADVVKLLNKAIKKRGDYDANIVAVVNDTVGTMMTCGYDDQQCEVGLIIGTGTNACYMEELRHIDLVEGDEGRMCINTEWGAFGDDGSLEDIRTEFDRELDRGSLNPGKQLFEKMVSGMYMGELVRLILVKMAKEGLLFEGRITPELLTRGKFNTSDVSAIEKDKEGIQNAKEILTRLGVEPSDVDCVSVQHICTIVSFRSANLVAATLGAILNRLRDNKGTPRLRTTVGVDGSLYKMHPQYSRRFHKTLRRLVPDSDVRFLLSESGTGKGAAMVTAVAYRLAEQHRQIEETLAHFRLSKQTLMEVKKRLRTEMEMGLRKETNSKATVKMLPSFVRSIPDGTEHGDFLALDLGGTNFRVLLVKIRSGKKRTVEMHNKIYSIPLEIMQGTGDELFDHIVSCISDFLDYMGIKGPRMPLGFTFSFPCHQTNLDCGILISWTKGFKATDCEGHDVASLLRDAVKRREEFDLDVVAVVNDTVGTMMTCAYEEPTCEIGLIVGTGTNACYMEEMKNVEMVEGNQGQMCINMEWGAFGDNGCLDDIRTDFDKVVDEYSLNSGKQRFEKMISGMYLGEIVRNILIDFTKKGFLFRGQISEPLKTRGIFETKFLSQIESDRLALLQVRAILQQLGLNSTCDDSILVKTVCGVVSKRAAQLCGAGMAAVVEKIRENRGLDHLNVTVGVDGTLYKLHPHFSRIMHQTVKELSPKCTVSFLLSEDGSGKGAALITAVGVRLRGDPSIA
For B3, the “channel activity (currents) of bilayer-reconstituted VDAC1” value in data set [3] is reported as “addition of HK-I to bilayer-reconstituted native VDAC1 induced the channel to fluctuate between the fully open, sub-conducting state to a stable, long-lived low-conducting state”; in data set [4], “HK-I had no effect on channel activity of the truncated version of VDAC1”.
